Results as given in article PMC3967050 (Genes & Development, 2014).
Square brackets hold non-standard residues; d marks the D form. Ends that are not written are not given here. Arg(Me2a) = CN(C)C(=N)NCCC[C@H](N)C(=O)O; Lys(Me3) = C[N+](C)(C)CCCC[C@H](N)C(=O)O; Arg(Me2s) = CN=C(NC)NCCC[C@H](N)C(=O)O; Arg(Me) = CNC(=N)NCCC[C@H](N)C(=O)O

Key:
[1] = molecular target: SPIN1_50–262 (Homo sapiens, UniProt Q9Y657); assay: ITC of SPIN1_50–262 with synthetic peptides; format: binding; settings: relative to H3 K4me3–R8me2a
Sequence of SPIN1_50–262 (Q9Y657 50-262): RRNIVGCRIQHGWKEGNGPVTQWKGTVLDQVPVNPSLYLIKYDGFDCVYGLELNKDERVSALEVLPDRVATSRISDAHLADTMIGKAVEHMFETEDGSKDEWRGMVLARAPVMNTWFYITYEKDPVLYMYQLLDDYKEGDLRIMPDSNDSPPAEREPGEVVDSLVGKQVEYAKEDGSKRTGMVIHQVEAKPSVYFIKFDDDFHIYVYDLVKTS

[2] = molecular target: Human Spindlin1 50–262 (SPIN1_(50–262)) (human) (UniProt Q9Y657); assay: ITC
Sequence of Human Spindlin1 50–262 (SPIN1_(50–262)) (human) (Q9Y657 50-262): as above

[3] = molecular target: bulky arginine mutations of residues W72, Y98, and F251; assay: ITC
[4] = molecular target: T1, Human Spindlin1 50–262 (SPIN1_(50–262)) (human, UniProt Q9Y657 50-262); assay: ITC
T1 sequence (Q9Y657 50-262): as above

[5] = molecular target: T1, Human Spindlin1 50–262 (SPIN1_(50–262)); assay: thermo-fluor stability assay
[6] = molecular target: SPIN1_(50–262) D184A (human, UniProt Q9Y657 50-262, D184A); assay: ITC
Sequence of SPIN1_(50–262) D184A (Q9Y657 50-262 D184A): as the sequence (Q9Y657 50-262) above, with D135A counted along it

[7] = molecular target: SPIN1_(50–262) E142A (human, UniProt Q9Y657 50-262, E142A); assay: ITC
Sequence of SPIN1_(50–262) E142A (Q9Y657 50-262 E142A): as the sequence (Q9Y657 50-262) above, with E93A counted along it

## C[C@H](N)C(=O)N[C@@H](CCCNC(=N)N)C(=O)N[C@H](C(=O)N[C@@H](CCCCN(C)C)C(=O)N[C@@H](CCC(N)=O)C(=O)N[C@H](C(=O)N[C@@H](C)C(=O)N[C@@H](CCCNC(=N)N(C)C)C(=O)N[C@@H](CCCCN)C(=O)N[C@@H](CO)C(=O)O)[C@@H](C)O)[C@@H](C)O [K4me2–R8me2a]
[1]
  affinity reduction upon loss of one methyl group: ~10 fold

## H3 K4me2–R8me2a peptide
[2]
  Kd: 510 nM

## H3_(1–10)K4me3R8me2a peptide (from UniProt P68431 2-11)
[3]
  fold drop of affinity against wild-type SPIN1(50–262): 10 to 40 fold

B1: TCF4_(458–469) peptide (peptide)
peptide: RRKKKCVRYIQG
[4]
  Kd: 3900 nM

B2: H3_(1–10)K4me3R8me2a peptide (peptide, UniProt P68431 2-11, looked up)
peptide: ART[Lys(Me3)]QTA[Arg(Me2a)]KS
[5]
  Tm of SPIN1(50–262) with the peptide: 63.5 °C
[6]
  fold reduction of binding affinity against wild-type SPIN1(50–262): ~90 fold
[7]
  fold reduction of binding affinity against wild-type SPIN1(50–262): ~3 fold

B3: H3_(1–10)K4me3 peptide (peptide)
peptide: ART[Lys(Me3)]QTARKS
[5]
  reduction of Tm against H3(1–10)K4me3R8me2a: 4 °C
[4]
  Kd: ~147 nM

B4: H3_(1–10)K4me3R8me2s peptide (peptide)
peptide: ART[Lys(Me3)]QTA[Arg(Me2s)]KS
[5]
  reduction of Tm against H3(1–10)K4me3R8me2a: 2 °C

B5: H3_(1–10)K4me3R8me1 peptide (peptide)
peptide: ART[Lys(Me3)]QTA[Arg(Me)]KS
[4]
  Kd: ~139 nM
